Source: paper PMC3320896

Molecular target: recombinant Hepatitis B surface antigen (rHBsAg) virus-like particle, S form of HBsAg (Hepatitis B virus)
Experiment: cryo-EM structure; redox-treated rHBsAg VLPs in vitrified ice; 3D reconstruction with octahedral symmetry imposed, nominal resolution ~1.5 nm (FSC0.5); monomers counted from the volume of segmented protein density

Substance “recombinant Hepatitis B surface antigen (rHBsAg) virus-like particle, S form of HBsAg (natural protein)” has a stoichiometry N (protein monomers per particle) of 96.
